Substitutions are numbered along the chain they refer to.
T1: FcγRIIa H (human, UniProt P12318 34-217)
T1 construct: extracellular domain; also called FcgRIIa H; FcγRIIa type H; not shown: His tag attached to the C terminus
T1 sequence (looked up): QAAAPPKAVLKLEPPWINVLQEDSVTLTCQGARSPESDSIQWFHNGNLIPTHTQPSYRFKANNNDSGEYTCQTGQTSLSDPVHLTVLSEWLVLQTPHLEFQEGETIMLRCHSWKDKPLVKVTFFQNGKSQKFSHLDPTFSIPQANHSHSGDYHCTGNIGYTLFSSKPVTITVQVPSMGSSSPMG

T2: FcγRIIa R (FcγRIIa, allotype R: Arg at position 131) extracellular domain with C-terminal His tag (human, UniProt P12318 34-217)
T2 construct: extracellular domain; also called FcgRIIa R; 2aR; not shown: His tag at the C terminus
T2 sequence (looked up): T1 sequence (looked up) with H134R

T3: FcγRIIb extracellular domain with C-terminal His tag (human, UniProt P31994 43-217)
T3 construct: extracellular domain; also called FcgRIIb; 2b; not shown: His tag at the C terminus
T3 sequence (looked up): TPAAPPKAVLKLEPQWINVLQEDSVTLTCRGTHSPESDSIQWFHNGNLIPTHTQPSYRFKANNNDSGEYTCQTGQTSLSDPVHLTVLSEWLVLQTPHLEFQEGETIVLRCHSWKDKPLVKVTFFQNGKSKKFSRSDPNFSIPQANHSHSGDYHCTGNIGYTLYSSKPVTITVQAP

T4: FcγRIIb (human, UniProt P31994 43-217)
T4 construct: extracellular domain; also called FcgRIIb; 2b; not shown: His tag attached to the C terminus
T4 sequence (looked up): T3 sequence (looked up)

B1: GpH7-A5/GpH7-B3 variant G236_02A/GpL16-k0 (antibody, human IgG1, kappa)
heavy 1: not shown
heavy 2: not shown
light: DIVMTQSPLSLPVTPGEPASISCQASESLVHSNRNTYLHWYLQKPGQSPQLLIYKVSNRFSGVPDRFSGSGSGTDFTLKISRVEAEDVGVYYCSQNTHVPPTFGQGTKVEIERTVAAPSVFIFPPSDEQLKSGTASVVCLLNNFYPREAKVQWKVDNALQSGNSQESVTEQDSKDSTYSLSSTLTLSKADYEKHKVYACEVTHQGLSSPVTKSFNRGEC
notes: Heterodimerized IgG1, mutation in the GpH7-B3 chain only; also called He Ab
B2: GpH7-A5/GpH7-B3 variant D265_03V/GpL16-k0 (antibody, human IgG1, kappa)
heavy 1: not shown
heavy 2: not shown
light: B1 light
notes: as for B1
B3: GpH7-A5/GpH7-B3 variant G236_03V/GpL16-k0 (antibody, human IgG1, kappa)
heavy 1: not shown
heavy 2: not shown
light: B1 light
notes: as for B1
B4: GpH7-A5/GpH7-B3 variant G236_04F/GpL16-k0 (antibody, human IgG1, kappa)
heavy 1: not shown
heavy 2: not shown
light: B1 light
notes: as for B1
B5: GpH7-A5/GpH7-B3 variant G236_06M/GpL16-k0 (antibody, human IgG1, kappa)
heavy 1: not shown
heavy 2: not shown
light: B1 light
notes: as for B1
B6: GpH7-A5/GpH7-B3 variant D265_02A/GpL16-k0 (antibody, human IgG1, kappa)
heavy 1: not shown
heavy 2: not shown
light: B1 light
notes: as for B1
B7: GpH7-A5/GpH7-B3 variant G236_05P/GpL16-k0 (antibody, human IgG1, kappa)
heavy 1: not shown
heavy 2: not shown
light: B1 light
notes: as for B1
B8: GpH7-A5/GpH7-B3 variant G236_07I/GpL16-k0 (antibody, human IgG1, kappa)
heavy 1: not shown
heavy 2: not shown
light: B1 light
notes: as for B1
B9: GpH7-A5/GpH7-B3 variant G236_16H/GpL16-k0 (antibody, human IgG1, kappa)
heavy 1: not shown
heavy 2: not shown
light: B1 light
notes: as for B1
B10: GpH7-A5/GpH7-B3 variant G236_14T/GpL16-k0 (antibody, human IgG1, kappa)
heavy 1: not shown
heavy 2: not shown
light: B1 light
notes: as for B1
B11: GpH7-A5/GpH7-B3 variant G236_13S/GpL16-k0 (antibody, human IgG1, kappa)
heavy 1: not shown
heavy 2: not shown
light: B1 light
notes: as for B1
B12: GpH7-A5/GpH7-B3 variant G236_08L/GpL16-k0 (antibody, human IgG1, kappa)
heavy 1: not shown
heavy 2: not shown
light: B1 light
notes: as for B1
B13: GpH7-A5/GpH7-B3 variant G236_15Y/GpL16-k0 (antibody, human IgG1, kappa)
heavy 1: not shown
heavy 2: not shown
light: B1 light
notes: as for B1
B14: GpH7-A5/GpH7-B3 variant G236_12R/GpL16-k0 (antibody, human IgG1, kappa)
heavy 1: not shown
heavy 2: not shown
light: B1 light
notes: as for B1
B15: GpH7-A5/GpH7-B3 variant L235_12R/GpL16-k0 (antibody, human IgG1, kappa)
heavy 1: not shown
heavy 2: not shown
light: B1 light
notes: as for B1
B16: GpH7-A5/GpH7-B3 variant L234_01G/GpL16-k0 (antibody, human IgG1, kappa)
heavy 1: not shown
heavy 2: not shown
light: B1 light
notes: He Ab: alteration in the GpH7-B3 H chain only; also called He Ab
B17: GpH7-A5/GpH7-B3 variant L234_16H/GpL16-k0 (antibody, human IgG1, kappa)
heavy 1: not shown
heavy 2: not shown
light: B1 light
notes: as for B16
B18: GpH7-A5/GpH7-B3 variant L235_11K/GpL16-k0 (antibody, human IgG1, kappa)
heavy 1: not shown
heavy 2: not shown
light: B1 light
notes: as for B16
B19: GpH7-A5/GpH7-B3 variant L234_12R/GpL16-k0 (antibody, human IgG1, kappa)
heavy 1: not shown
heavy 2: not shown
light: B1 light
notes: as for B16
B20: GpH7-A5/GpH7-B3 variant L234_14T/GpL16-k0 (antibody, human IgG1, kappa)
heavy 1: not shown
heavy 2: not shown
light: B1 light
notes: as for B16
B21: GpH7-A5/GpH7-B3 variant L234_02A/GpL16-k0 (antibody, human IgG1, kappa)
heavy 1: not shown
heavy 2: not shown
light: B1 light
notes: as for B16
B22: GpH7-A5/GpH7-B3 variant L234_05P/GpL16-k0 (antibody, human IgG1, kappa)
heavy 1: not shown
heavy 2: not shown
light: B1 light
notes: as for B16
B23: GpH7-A5/GpH7-B3 variant L235_01G/GpL16-k0 (antibody, human IgG1, kappa)
heavy 1: not shown
heavy 2: not shown
light: B1 light
notes: as for B16
B24: GpH7-A5/GpH7-B3 variant L235_16H/GpL16-k0 (antibody, human IgG1, kappa)
heavy 1: not shown
heavy 2: not shown
light: B1 light
notes: as for B16
B25: GpH7-A5/GpH7-B3 variant P238_02A/GpL16-k0 (antibody, human IgG1, kappa)
heavy 1: not shown
heavy 2: not shown
light: B1 light
notes: as for B16
B26: GpH7-A5/GpH7-B3 variant L234_19Q/GpL16-k0 (antibody, human IgG1, kappa)
heavy 1: not shown
heavy 2: not shown
light: B1 light
notes: as for B16
B27: GpH7-A5/GpH7-B3 variant P238_01G/GpL16-k0 (antibody, human IgG1, kappa)
heavy 1: not shown
heavy 2: not shown
light: B1 light
notes: as for B16
B28: GpH7-A5/GpH7-B3 variant L235_13S/GpL16-k0 (antibody, human IgG1, kappa)
heavy 1: not shown
heavy 2: not shown
light: B1 light
notes: as for B16
B29: GpH7-A5/GpH7-B3 variant L235_18N/GpL16-k0 (antibody, human IgG1, kappa)
heavy 1: not shown
heavy 2: not shown
light: B1 light
notes: as for B16
B30: GpH7-A5/GpH7-B3 variant L235_19Q/GpL16-k0 (antibody, human IgG1, kappa)
heavy 1: not shown
heavy 2: not shown
light: B1 light
notes: as for B16
B31: GpH7-A5/GpH7-B3 variant L234_11K/GpL16-k0 (antibody, human IgG1, kappa)
heavy 1: not shown
heavy 2: not shown
light: B1 light
notes: as for B16
B32: GpH7-A5/GpH7-B3 variant L235_14T/GpL16-k0 (antibody, human IgG1, kappa)
heavy 1: not shown
heavy 2: not shown
light: B1 light
notes: as for B16

Target: T1, FcγRIIa H
Experiment: ratio of He/Con_2aH to He/Con_2b (relative SPR binding to FcγRIIa H over FcγRIIb)

He_2aH/2b (IIaH/IIb) | Binder
1.44 | B1
1.42 | B2
3.39 | B3
3 | B4
1.88 | B5
1.58 | B6
3.34 | B7
3.72 | B8
3.51 | B9
1.79 | B10
1.39 | B11
2.83 | B12
3.45 | B13
5.04 | B14
3.16 | B15

Target: T2, FcγRIIa R (FcγRIIa, allotype R: Arg at …)
Experiment: ratio He/Con_2aR : He/Con_2b (FcgRIIa R over FcgRIIb), SPR Biacore
Method: The heterodimerized antibodies He Abs in which one of the H chains was introduced with an alteration were assayed for their binding activities to each activating FcγR and inhibitory FcγR according to the method described in Example 4. […] The activating FcγRs in FIGS. 26, 27, 28, and 29 are FcγRIa, FcγRIIa (R), FcγRIIa (H), and FcγRIIIa, respectively.
Analysis of interaction between objective antibody and the FcγR was carried out using Biacore T100 (GE Healthcare). HBS-EP+ (GE Healthcare) was used as the running buffer, and the measurement temperature was set to 25° C. Chips produced by immobilizing the antigen peptide by the amine coupling method to a Series S Sencor Chip CM5 (GE Healthcare), or alternatively, chips produced by allowing preliminarily biotinylated antigen peptides to interact with and immobilize onto a Series S Sensor Chip SA (certified) (GE Healthcare) were used. Antibodies of interest were captured onto an antigen peptide-immobilized chip, and allowed to interact to each FcγR diluted with running buffer. To regenerate and repeatedly use the chip, the antibodies captured on the chip were washed off by reacting 10 mM glycine-HCl, pH 1.5.

He_2aR/2b (IIaR/IIb) | Binder
1.23 | B16
1.21 | B17
1.72 | B18
1.58 | B19
1.24 | B20
1.23 | B21
1.23 | B22
1.37 | B23
1.23 | B24
1.31 | B25
1.24 | B26
1.34 | B27
1.36 | B28
1.21 | B29
1.32 | B30
1.66 | B31
1.3 | B32

Target: T2, FcγRIIa R (FcγRIIa, allotype R: Arg at …)
Experiment: SPR Biacore, antibody captured, FcgR analyte; vs HeCon Ab GpH7-A5/GpH7-B3/GpL16-k0 = 100

He/Con_2aR | Binder
62.3 control = 100 | B16
71.8 control = 100 | B17
10.8 control = 100 | B18
29.9 control = 100 | B19
77.5 control = 100 | B20
79.6 control = 100 | B21
89.6 control = 100 | B22
48.5 control = 100 | B23
94.8 control = 100 | B24
75.1 control = 100 | B25
75.1 control = 100 | B26
75 control = 100 | B27
65.3 control = 100 | B28
66.5 control = 100 | B29
56.2 control = 100 | B30
26.8 control = 100 | B31
60.7 control = 100 | B32

Target: T3, FcγRIIb extracellular domain with …
Experiment: as above

He/Con_2b | Binder
50.7 control = 100 | B16
59.4 control = 100 | B17
6.3 control = 100 | B18
18.9 control = 100 | B19
62.5 control = 100 | B20
64.9 control = 100 | B21
72.9 control = 100 | B22
35.4 control = 100 | B23
76.9 control = 100 | B24
57.4 control = 100 | B25
60.3 control = 100 | B26
56 control = 100 | B27
48.2 control = 100 | B28
54.9 control = 100 | B29
42.6 control = 100 | B30
16.2 control = 100 | B31
46.8 control = 100 | B32

Target: T1, FcγRIIa H
Experiment: SPR (Biacore), antibody captured, FcγR as analyte; binding relative to GpH7-A5/GpH7-B3/GpL16-k0 = 100

He/Con_2aH | Binder
139 control = 100 | B1
4.6 control = 100 | B2
119 control = 100 | B3
118 control = 100 | B4
85.7 control = 100 | B5
31.3 control = 100 | B6
63.5 control = 100 | B7
115 control = 100 | B8
98.2 control = 100 | B9
103 control = 100 | B10
135 control = 100 | B11
75.8 control = 100 | B12
136 control = 100 | B13
34.2 control = 100 | B14
30.3 control = 100 | B15

Target: T4, FcγRIIb
Experiment: as above

He/Con_2b | Binder
96.5 control = 100 | B1
3.2 control = 100 | B2
35.3 control = 100 | B3
39.3 control = 100 | B4
45.5 control = 100 | B5
19.9 control = 100 | B6
19 control = 100 | B7
31 control = 100 | B8
27.9 control = 100 | B9
57.8 control = 100 | B10
96.7 control = 100 | B11
26.8 control = 100 | B12
39.5 control = 100 | B13
6.8 control = 100 | B14
